Data: US10919943B2, “Mutant proteins enabling agrochemical control of plant gene expression” (The Regents of the University of California, priority 2016, dated 2021)

T1: PYR1 (Arabidopsis thaliana, UniProt O49686)
T1 construct: expressed in transfected cells; host or cells: S. cerevisiae strain Y190
T1 sequence (O49686 1-191): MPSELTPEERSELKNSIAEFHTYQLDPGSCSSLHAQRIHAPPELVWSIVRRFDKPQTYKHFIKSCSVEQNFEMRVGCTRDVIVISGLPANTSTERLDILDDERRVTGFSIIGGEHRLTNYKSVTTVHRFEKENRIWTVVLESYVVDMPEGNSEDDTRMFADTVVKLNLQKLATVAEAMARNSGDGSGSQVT


biological target: T1, PYR1; assay: Yeast two hybrid of pACT-HAB1 site saturation mutants with pBD-PYR1 on 10 μM ABA, β-galactosidase staining; type: cell-based; set-up: key: x: Mutations in HAB1 that disrupt HAB1 interaction with PYR1; conditions: S. cerevisiae Y190, 10 μM ABA; dead = lack of detectable staining in comparison to wild type control
How it was run: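 Read-out is β-galactosidase staining of chloroform-lysed Y190 colonies grown 2 days at 30 °C on SD (-Leu,-Trp) plus 10 μM ABA. Each pACT-HAB1 single-substitution mutant (N-terminally truncated by three residues) was paired with pBD-PYR1; absence of detectable staining relative to wild type scored as dead.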

Molecule	Mutations in HAB1 that disrupt HAB1 interaction with PYR1
R389G: HAB1 mutant (protein, UniProt Q9CAJ0 23-511, looked up, variant R389G) Protein phosphatase 2C 16: SPVEITQLKNVTDAADLLSDSENQSFCNGGTECTMEDVSELEEVGEQDLLKTLSDTRSGSSNVFDEDDVLSVVEDNSAVISEGLLVVDAGSELSLSNTAMEIDNGRVLATAIIVGESSIEQVPTAEVLIAGVNQDTNTSEVVIRLPDENSNHLVKGRSVYELDCIPLWGTVSIQGNRSEMEDAFAVSPHFLKLPIKMLMGDHEGMSPSLTHLTGHFFGVYDGHGGHKVADYCRDRLHFALAEEIERIKDELCKRNTGEGRQVQWDKVFTSCFLTVDGEIEGKIGRAVVGSSDKVLEAVASETVGSTAVVALVCSSHIVVSNCGDSRAVLFRGKEAMPLSVDHKPDREDEYARIENAGGKVIQWQGAGVFGVLAMSRSIGDRYLKPYVIPEPEVTFMPRSREDECLILASDGLWDVMNNQEVCEIARRRILMWHKKNGAPPLAERGKGIDPACQAAADYLSMLALQKGSKDNISIIVIDLKAQRKFKTRT	x
F391P: HAB1 mutant (protein, UniProt Q9CAJ0 23-511, looked up, variant F391P) Protein phosphatase 2C 16: SPVEITQLKNVTDAADLLSDSENQSFCNGGTECTMEDVSELEEVGEQDLLKTLSDTRSGSSNVFDEDDVLSVVEDNSAVISEGLLVVDAGSELSLSNTAMEIDNGRVLATAIIVGESSIEQVPTAEVLIAGVNQDTNTSEVVIRLPDENSNHLVKGRSVYELDCIPLWGTVSIQGNRSEMEDAFAVSPHFLKLPIKMLMGDHEGMSPSLTHLTGHFFGVYDGHGGHKVADYCRDRLHFALAEEIERIKDELCKRNTGEGRQVQWDKVFTSCFLTVDGEIEGKIGRAVVGSSDKVLEAVASETVGSTAVVALVCSSHIVVSNCGDSRAVLFRGKEAMPLSVDHKPDREDEYARIENAGGKVIQWQGARVPGVLAMSRSIGDRYLKPYVIPEPEVTFMPRSREDECLILASDGLWDVMNNQEVCEIARRRILMWHKKNGAPPLAERGKGIDPACQAAADYLSMLALQKGSKDNISIIVIDLKAQRKFKTRT	x
R389H: HAB1 mutant (protein, UniProt Q9CAJ0 23-511, looked up, variant R389H) Protein phosphatase 2C 16: SPVEITQLKNVTDAADLLSDSENQSFCNGGTECTMEDVSELEEVGEQDLLKTLSDTRSGSSNVFDEDDVLSVVEDNSAVISEGLLVVDAGSELSLSNTAMEIDNGRVLATAIIVGESSIEQVPTAEVLIAGVNQDTNTSEVVIRLPDENSNHLVKGRSVYELDCIPLWGTVSIQGNRSEMEDAFAVSPHFLKLPIKMLMGDHEGMSPSLTHLTGHFFGVYDGHGGHKVADYCRDRLHFALAEEIERIKDELCKRNTGEGRQVQWDKVFTSCFLTVDGEIEGKIGRAVVGSSDKVLEAVASETVGSTAVVALVCSSHIVVSNCGDSRAVLFRGKEAMPLSVDHKPDREDEYARIENAGGKVIQWQGAHVFGVLAMSRSIGDRYLKPYVIPEPEVTFMPRSREDECLILASDGLWDVMNNQEVCEIARRRILMWHKKNGAPPLAERGKGIDPACQAAADYLSMLALQKGSKDNISIIVIDLKAQRKFKTRT	x
R389I: HAB1 mutant (protein, UniProt Q9CAJ0 23-511, looked up, variant R389I) Protein phosphatase 2C 16: SPVEITQLKNVTDAADLLSDSENQSFCNGGTECTMEDVSELEEVGEQDLLKTLSDTRSGSSNVFDEDDVLSVVEDNSAVISEGLLVVDAGSELSLSNTAMEIDNGRVLATAIIVGESSIEQVPTAEVLIAGVNQDTNTSEVVIRLPDENSNHLVKGRSVYELDCIPLWGTVSIQGNRSEMEDAFAVSPHFLKLPIKMLMGDHEGMSPSLTHLTGHFFGVYDGHGGHKVADYCRDRLHFALAEEIERIKDELCKRNTGEGRQVQWDKVFTSCFLTVDGEIEGKIGRAVVGSSDKVLEAVASETVGSTAVVALVCSSHIVVSNCGDSRAVLFRGKEAMPLSVDHKPDREDEYARIENAGGKVIQWQGAIVFGVLAMSRSIGDRYLKPYVIPEPEVTFMPRSREDECLILASDGLWDVMNNQEVCEIARRRILMWHKKNGAPPLAERGKGIDPACQAAADYLSMLALQKGSKDNISIIVIDLKAQRKFKTRT	x
F391E: HAB1 mutant (protein, UniProt Q9CAJ0 23-511, looked up, variant F391E) Protein phosphatase 2C 16: SPVEITQLKNVTDAADLLSDSENQSFCNGGTECTMEDVSELEEVGEQDLLKTLSDTRSGSSNVFDEDDVLSVVEDNSAVISEGLLVVDAGSELSLSNTAMEIDNGRVLATAIIVGESSIEQVPTAEVLIAGVNQDTNTSEVVIRLPDENSNHLVKGRSVYELDCIPLWGTVSIQGNRSEMEDAFAVSPHFLKLPIKMLMGDHEGMSPSLTHLTGHFFGVYDGHGGHKVADYCRDRLHFALAEEIERIKDELCKRNTGEGRQVQWDKVFTSCFLTVDGEIEGKIGRAVVGSSDKVLEAVASETVGSTAVVALVCSSHIVVSNCGDSRAVLFRGKEAMPLSVDHKPDREDEYARIENAGGKVIQWQGARVEGVLAMSRSIGDRYLKPYVIPEPEVTFMPRSREDECLILASDGLWDVMNNQEVCEIARRRILMWHKKNGAPPLAERGKGIDPACQAAADYLSMLALQKGSKDNISIIVIDLKAQRKFKTRT	x

Continued, values first:

Mutations in HAB1 that disrupt HAB1 interaction with PYR1	Molecule
x	R389K: HAB1 mutant (protein, UniProt Q9CAJ0 23-511, looked up, variant R389K) Protein phosphatase 2C 16: SPVEITQLKNVTDAADLLSDSENQSFCNGGTECTMEDVSELEEVGEQDLLKTLSDTRSGSSNVFDEDDVLSVVEDNSAVISEGLLVVDAGSELSLSNTAMEIDNGRVLATAIIVGESSIEQVPTAEVLIAGVNQDTNTSEVVIRLPDENSNHLVKGRSVYELDCIPLWGTVSIQGNRSEMEDAFAVSPHFLKLPIKMLMGDHEGMSPSLTHLTGHFFGVYDGHGGHKVADYCRDRLHFALAEEIERIKDELCKRNTGEGRQVQWDKVFTSCFLTVDGEIEGKIGRAVVGSSDKVLEAVASETVGSTAVVALVCSSHIVVSNCGDSRAVLFRGKEAMPLSVDHKPDREDEYARIENAGGKVIQWQGAKVFGVLAMSRSIGDRYLKPYVIPEPEVTFMPRSREDECLILASDGLWDVMNNQEVCEIARRRILMWHKKNGAPPLAERGKGIDPACQAAADYLSMLALQKGSKDNISIIVIDLKAQRKFKTRT
x	G392A: HAB1 mutant (protein, UniProt Q9CAJ0 23-511, looked up, variant G392A) Protein phosphatase 2C 16: SPVEITQLKNVTDAADLLSDSENQSFCNGGTECTMEDVSELEEVGEQDLLKTLSDTRSGSSNVFDEDDVLSVVEDNSAVISEGLLVVDAGSELSLSNTAMEIDNGRVLATAIIVGESSIEQVPTAEVLIAGVNQDTNTSEVVIRLPDENSNHLVKGRSVYELDCIPLWGTVSIQGNRSEMEDAFAVSPHFLKLPIKMLMGDHEGMSPSLTHLTGHFFGVYDGHGGHKVADYCRDRLHFALAEEIERIKDELCKRNTGEGRQVQWDKVFTSCFLTVDGEIEGKIGRAVVGSSDKVLEAVASETVGSTAVVALVCSSHIVVSNCGDSRAVLFRGKEAMPLSVDHKPDREDEYARIENAGGKVIQWQGARVFAVLAMSRSIGDRYLKPYVIPEPEVTFMPRSREDECLILASDGLWDVMNNQEVCEIARRRILMWHKKNGAPPLAERGKGIDPACQAAADYLSMLALQKGSKDNISIIVIDLKAQRKFKTRT
x	F391D: HAB1 mutant (protein, UniProt Q9CAJ0 23-511, looked up, variant F391D) Protein phosphatase 2C 16: SPVEITQLKNVTDAADLLSDSENQSFCNGGTECTMEDVSELEEVGEQDLLKTLSDTRSGSSNVFDEDDVLSVVEDNSAVISEGLLVVDAGSELSLSNTAMEIDNGRVLATAIIVGESSIEQVPTAEVLIAGVNQDTNTSEVVIRLPDENSNHLVKGRSVYELDCIPLWGTVSIQGNRSEMEDAFAVSPHFLKLPIKMLMGDHEGMSPSLTHLTGHFFGVYDGHGGHKVADYCRDRLHFALAEEIERIKDELCKRNTGEGRQVQWDKVFTSCFLTVDGEIEGKIGRAVVGSSDKVLEAVASETVGSTAVVALVCSSHIVVSNCGDSRAVLFRGKEAMPLSVDHKPDREDEYARIENAGGKVIQWQGARVDGVLAMSRSIGDRYLKPYVIPEPEVTFMPRSREDECLILASDGLWDVMNNQEVCEIARRRILMWHKKNGAPPLAERGKGIDPACQAAADYLSMLALQKGSKDNISIIVIDLKAQRKFKTRT
